# From IntAct's records for PubMed 21169485
# B1: Lipopolysaccharide export system protein LptC (Escherichia coli (strain K12)), P0ADV9 (parent)
# chain: MSKARRWVIIVLSLAVLVMIGINMAEKDDTAQVVVNNNDPTYKSEHTDTLVYNPEGALSYRLIAQHVEYYSDQAVSWFTQPVLTTFDKDKIPTWSVKADKAKLTNDRMLYLYGHVEVNALVPDSQLRRITTDNAQINLVTQDVTSEDLVTLYGTTFNSSGLKMRGNLRSKNAELIEKVRTSYEIQNKQTQP
# partner: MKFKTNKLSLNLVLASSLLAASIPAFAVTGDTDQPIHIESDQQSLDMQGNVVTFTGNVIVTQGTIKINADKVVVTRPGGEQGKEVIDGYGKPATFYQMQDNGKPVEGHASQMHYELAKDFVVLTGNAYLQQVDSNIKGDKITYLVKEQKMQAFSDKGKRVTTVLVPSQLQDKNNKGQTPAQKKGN
# Variants of: B1
# Conditions: with lpta_ecoli lptA
row,effect of a mutation on the interaction,Variant
1,disrupting interaction,MSKARRWVIIVLSLAVLVMIGINMAEKDDTAQVVVNNNDPTYKSEHTDTLVYNPEGALSYRLIAQHVEYYSDQAVSWFTQPVLTTFDKDKIPTWSVKADKAKLTNDRMLYLYGHVEVNALVPDSQLRRITTDNAQINLVTQDVTSEDLVTLYRTTFNSSGLKMRGNLRSKNAELIEKVRTSYEIQNKQTQP [G153R]
